The target in test [1] is T1, vWF/fVIII (Homo sapiens, UniProt P04275). The test is described as follows: Removal of vWF/fVIII from plasma on D-EADna2′ED resin, fVIII coagulation assay (Example 11). Format: binding. On the set-up: from tissue; host or cells: pooled human plasma. As for the experimental part: (§1) Pooled human plasma (20 ml) was added to 0.8 ml of resin and incubated for 30 minutes while gently rotating. Resin was settled under gravity or by short gentle centrifugation, and the supernatant was collected (the equivalent of “flow-through” of the previous examples). The resin was then packed into an Omni column and the chromatography was completed using the ÄKTAExplorer system. The flow rate was kept constant at 0.4 ml/min (LV=31 cm/h; retention time=2 minutes). After washing of the resin with EQ buffer to baseline, the bound proteins were eluted from the resin with 10 column volumes (CV) of 0.5 M NaCl, followed by 10 CVs of 0.75 M NaCl, 1.0 M NaCl/1% Tween (all in 0.02 M sodium citrate, pH 7.0) and 2.0 M guanidine. Twenty-five microliters of 0.4 M calcium chloride was added to each fraction collected, and the fractions were evaluated by OD reading and Western Blots for vWF and fVIII antigen. The fVIII activity of pooled fractions was determined by chromogenic and coagulation assays.

The target of test [2] is T1, vWF/fVIII. Description: Primary screening of 6-mer library for vWF/fVIII ligands. The conditions noted are these: bead screening, immunodetection. Set-up: from tissue; host or cells: human plasma (first round also purified vWF of unstated origin). Format: binding. As for the experimental part: The ToyoPearl 650-M amino resin displaying the library of D- or L-hexamers ([…]) was incubated either with plasma or purified vWF in TBS buffer or EQ buffer. The captured proteins were subsequently eluted stepwise from the resin beads with sodium chloride (0.5 M, 1.0 M, 2.0 M) and guanidine (2–6 M). The target proteins were detected immunologically after transfer onto a PVDF membrane. One of three detection strategies was employed to detect target protein binding. A one-step immunodetection assay using a specific HRP-conjugated polyclonal sheep anti-human vWF antibody was performed. A differential-subtractive immuno-detection assay entailed detecting proteins transferred onto membranes with specific HRP-conjugated polyclonal sheep anti-human vWF antibody in 1:10,000 dilution (AHP062P; Serotec) followed by exposure to chemiluminescence substrate ECLPlus. Membranes were stripped and re-probed with rabbit anti-human albumin antibody (No. A0433, Lot No. 031K4897 from Sigma) followed by secondary alkaline phosphatase-labeled goat anti rabbit antibody (Tropix). Following film development, films were aligned and dots that appeared on films for vWF and on albumin films were deemed background signal. Dots positive for vWF but not for albumin were considered positive. A detection assay using radio-labeled antibody also was performed. Freshly I125-radiolabeled monoclonal anti-human vWF antibody, 101.104 (VWFAE; Enzyme Research) in dilution 1:250 in hSA-Hepes-0.14 M NaCl-Tween buffer was used for detection. After washing, membranes were exposed to Kodak films for 48 hrs at −80° C. Positive beads were picked and prepared for re-probing.
All beads collected from several gels were pooled in the same tube, washed with water and incubated in 8 M Guanidine to remove remaining proteins before re-probing. After extensive washing with water and citrate buffer, the resin beads were blocked with 3% human albumin for 2 hours and incubated with human plasma. Resin beads were immobilized in agarose gels (6 cm×7 cm) and target protein was transferred to a PVDF membrane in 2 M NaCl for 20 hours. Membranes were blocked, incubated with 101.104 anti-vWF antibody, and detected with secondary goat/anti-mouse-HRP. In some experiments, sheep anti-human vWF antibody conjugated with HRP was used for detection. Positive beads were picked, washed, and the attached ligands were sequenced.
For some re-probing experiments, resin beads linked to target proteins were visualized by adding specific antibody and color substrate to facilitate further alignment. Detection of a target protein bound to the resin beads by non-labeled monoclonal antibody 101.104 anti-vWF was used followed by goat/anti-mouse antibody conjugated with alkaline phophatase and FastRed prior to immobilizing beads in the agarose gel. Additional substrate CDPStar was applied directly onto a gel with immobilized beads, and the gel was exposed to a Kodak film. Dark spots on the film were correlated with red spots on the gel to ensure appropriate alignment. The proteins from resin beads immobilized in the gel were transferred onto a membrane and developed again with radiolabeled monoclonal antibody against vWF. The films and gel were aligned, and resin beads that appeared positive in all stages were picked, washed, and attached ligands sequenced.

Test [3] has as its target T1, vWF/fVIII. The test is described as follows: Removal of vWF/fVIII from plasma on D-EADna2′ED resin, fVIII chromogenic assay (Example 11). Format: binding. On the set-up: from tissue; host or cells: pooled human plasma. The note with it: for FVIII / Total FVIII: Chromogenic Assay. As for the experimental part: as §1
A further test deals with T2, API (Homo sapiens, UniProt P01009).
T2 construct: from tissue; host or cells: human plasma (whole, fibrinogen-depleted or F1-Apo-depleted)
T2 sequence (P01009 25-418): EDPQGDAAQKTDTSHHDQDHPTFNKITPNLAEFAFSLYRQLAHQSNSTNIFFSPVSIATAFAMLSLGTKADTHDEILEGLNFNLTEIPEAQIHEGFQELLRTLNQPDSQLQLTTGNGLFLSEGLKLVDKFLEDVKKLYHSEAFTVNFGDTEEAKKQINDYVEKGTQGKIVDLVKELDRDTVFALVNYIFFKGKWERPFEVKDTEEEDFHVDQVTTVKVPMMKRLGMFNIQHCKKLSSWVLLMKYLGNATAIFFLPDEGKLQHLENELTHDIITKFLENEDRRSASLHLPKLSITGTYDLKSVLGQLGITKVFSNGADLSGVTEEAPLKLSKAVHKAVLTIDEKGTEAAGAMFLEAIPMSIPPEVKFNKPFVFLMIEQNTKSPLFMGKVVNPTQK
Description: Primary screening of 6-mer library for API-binding ligands. The conditions noted are these: bead screening, immunodetection / radiolabel. How it is done: Peptide libraries attached to Toyopearl-AF Amino 650M resin or Tentagel resin were evaluated with 14C-labeled fibrinogen and API. All steps were performed at room temperature. Specifically, 20 mg of Toyopearl resin beads or 40 mg of Tentagel resin beads were suspended in 20% methanol for a minimum of 2 hours in 15 ml conical polypropylene tubes (Corning). After rinsing with distilled water, the resin beads were equilibrated in 0.15 M NaCl, 0.020 M sodium citrate, pH 7.3. The resin beads were then blocked for 2 hours with 1% casein (Sigma) in 0.15M NaCl, 0.020M sodium citrate, pH 7.3. Following blocking, the resin beads were centrifuged and the supernatant removed. A solution containing 1 mM of C^14-labeled fibrinogen or 30 μM of C^14-labeled API was applied to the resin beads in the blocking solution in the presence of 0.1% Tween-20 (Sigma). The materials were incubated for 2 hours. The resin beads were washed with 0.15 M NaCl, 0.020 M sodium citrate, 0.05% Tween-20, pH 7.3, in a batch method (fibrinogen ligands) or in disposable BioRad 10 ml columns (API ligands) until radiation counts reached the background level of less than 40 DPM. The resin beads were divided into separate tubes to obtain approximately 5–10 mg of resin beads per sheet. This was accomplished by mixing each aliquot of resin beads with 20–22 ml of 1% low melting agarose solution (Sigma) at less than 40° C., and rapidly pouring the mixture onto GelBond® film sheets (BMA Cat. No. 53749, 16×18 cm; Cat. No. 53759, 12.5×24.5 cm). Spreading of the resin beads to the edge of the gel sheets was prevented by creating frames (about 23 cm×about 10 cm or about 15 cm×about 15 cm) with several layers of masking tape. About 20–22 ml of resin bead-agarose mixture was plated on each GelBond sheet. Special care was taken to spread the beads in an even monolayer to facilitate identification and isolation of individual “hot” beads. The agarose gel was then air-dried overnight and placed, bead side down, on X-ray film (Kodak Biomax MR). The agarose and autoradiography film were exposed for 4–14 days followed by a second exposure of 7 days in an about 20 cm×about 25 cm stainless steel cassette. Afterwards, the films were taped together and marked with several staple holes to ensure proper alignment of beads in agarose to film. After the films were developed, the positive beads that appeared on both films were identified under the microscope and picked by aligning the developed film(s) and agarose gel via the staple holes. Beads to be sequenced were carefully picked by cutting a square trench around the bead with a scalpel, and hydrating this area with distilled water. […]

For the next test, the system named is paraoxonase. The conditions noted are these: resin bead suspension. How it is done:
Paraoxonase binding to a WWLHAN (SEQ ID NO: 56)-displaying resin was evaluated according to the following protocol. Rabbit serum diluted 1/10 times with PBS ([…]) was incubated in a rotating Eppendorf tube with 50 μl of D-WWLHAN (SEQ ID NO: 56)-displaying resin suspension containing approximately […] of resin. The resin was previously soaked in 20% methanol overnight and washed 3 times with PBS to remove the methanol traces and resuspended in paraoxonase assay buffer (20 mM Tris pH 8.0, 150 mM NaCl, and 2 mM CaCl2). After 1 hour incubation at 37° C., resin beads were precipitated by centrifugation at 8000 g for 1 min in an Eppendorf microcentrifuge. Supernatants were transferred into separate Eppendorf tubes and resin bead pellets were resuspended in equal volumes of paraoxonase assay buffer. Paraoxonase activity of resin bead suspensions and supernatant solutions was measured. In particular, 100 μl of paraoxonase assay buffer containing 100 μm of DEPFMU (a fluorogenic substrate for paraoxonase detection) was mixed with […] of supernatant or 10 μl of resin bead suspension, or the original serum solution in a standard microtiter plate well. After thorough mixing, the plate solution was incubated for 20 minutes at 37° C. Hydrolysis of DEPFMU was quantified by measuring the fluorescence level at […] using a commercial fluorometer. The level of fluorescence correlates with the level of 6,8-difluoro-4-methylumbelliferyl released from DEPFMU as a result of paraoxonase-mediated hydrolysis. The actual amount of 6,8-difluoro-4-methylumbelliferyl released in the assay can be calibrated with a known amount of 6,8-difluoro-4-methylumbelliferyl.
Several different D-WWLHIN (SEQ ID NO: 33) analogs were screened for the ability to bind to paraoxonase under the conditions described in Example 7. For this experiment, the following resins were tested: WWLHAN (SEQ ID NO: 56), AWLHIN (SEQ ID NO: 59), WALHIN (SEQ ID NO: 60), WWAHIN (SEQ ID NO: 61), WWLHIA (SEQ ID NO: 63), WYLHIN (SEQ ID NO: 35), WWLFIN (SEQ ID NO: 36), and na1′WLHIN (SEQ ID NO: 40).

Non-standard residues stand in square brackets, D forms with d. No end group written: not given here. 2Nal = N[C@@H](Cc1ccc2ccccc2c1)C(=O)O

From US7223734B2, “Plasma protein-binding ligands” (The American National Red Cross, priority 2002, dated 2007) come the findings set out here.

Regarding “EADna2′ED (EAD[2Nal]ED; not fully specified; also: D-amino acids, positions not given here) [D-EADna2′ED]”, the FVIII was 0.39 IU/ml in the test with vWF/fVIII [1] (Elution 1 (0.75 M NaCl)); 0 IU/ml with vWF/fVIII [1] (Elution 2 (1.0 M NaCl)); 0.08 IU/ml with vWF/fVIII [1] (Flow-Through, plasma load 0.423 IU/ml); 0 IU/ml in the test with vWF/fVIII [1] (Wash (0.5 M NaCl)); 0.46 IU/ml with vWF/fVIII [3] (Elution 1 (0.75 M NaCl)); 0 IU/ml with vWF/fVIII [3] (Elution 2 (1.0 M NaCl)). The FVIII came out at 0.08 IU/ml in the test with vWF/fVIII [3] (Flow-Through, plasma load 20 ml, 1.07 IU/ml) and 0.12 IU/ml in the test with vWF/fVIII [3] (Wash (0.5 M NaCl)). In addition, the “Total FVIII” value is given as 3.9 IU with vWF/fVIII [1] (Elution 1 (0.75 M NaCl)); 0 IU in the test with vWF/fVIII [1] (Elution 2 (1.0 M NaCl)); 1.6 IU in the test with vWF/fVIII [1] (Flow-Through, load 8.46 IU); 0 IU with vWF/fVIII [1] (Wash (0.5 M NaCl)); 4.6 IU with vWF/fVIII [3] (Elution 1 (0.75 M NaCl)); 0 IU with vWF/fVIII [3] (Elution 2 (1.0 M NaCl)). Besides, the “Total FVIII” value worked out at 1.6 IU in the test with vWF/fVIII [3] (Flow-Through, load 21.4 IU) and 1.2 IU in the test with vWF/fVIII [3] (Wash (0.5 M NaCl)). Besides, in the test with vWF/fVIII [2], the “identified as vWF/fVIII binding peptide from the 6-mer library” value (“identified as vWF/fVIII binding peptide” for short) is on record as “vWF/fVIII binding”. Besides, in the test with vWF/fVIII [3] (plasma, fVIII activity and Western Blot for vWF), the “binding of vWF/fVIII by the resin” value is on record as “binds vWF/fVIII”.

On to EDSWDV, for which, in the test with vWF/fVIII [2], the “identified as vWF/fVIII binding peptide” value is on record as “vWF/fVIII binding”.

Take HFDLHR: the “identified as API-binding peptide ligand from the 6-mer library” value with API is “API-binding”.

With LEDna2′EE (LED[2Nal]EE), the “identified as vWF/fVIII binding peptide” value with vWF/fVIII [2] is recorded as “vWF/fVIII binding”.

As for QWFPEK, in the test with vWF/fVIII [2], the “identified as vWF/fVIII binding peptide” value is “vWF/fVIII binding”.

As for WALHIN [D-WALHIN], in the test on paraoxonase, the “paraoxonase activity of bead fractions” value was “Significant activity”.

On to WWAHIN [D-WWAHIN], for which, in the test on paraoxonase, the “paraoxonase activity of bead fractions” value is reported as “Significant activity”.

Consider WWLFIN [D-WWLFIN], for which, in the test with paraoxonase, the “paraoxonase activity of bead fractions” value was “Significant activity”.

With YHLGWL, in the test with vWF/fVIII [2], the “identified as vWF/fVIII binding peptide” value was “vWF/fVIII binding”.

Consider YLHYQT, for which, in the test with vWF/fVIII [2], the “identified as vWF/fVIII binding peptide” value is “vWF/fVIII binding”.

YVDEDD: the “identified as vWF/fVIII binding peptide” value with vWF/fVIII [2] is on record as “vWF/fVIII binding”.
